{
  "source": "patent US20050123549A1",
  "about": "(IMMUNOGEN, published 2005)",
  "binders": {"B1": {"name": "murine DS6 anti-CA6 monoclonal antibody (antibody, IgG1, V domains shown)", "VH": "QAYLQQSGAELVRSGASVKMSCKASGYTFTSYNMHWVKQTPGQGLEWIGYIYPGNGATNYNQKFKGKATLTADPSSSTAYMQISSLTSEDSAVYFCARGDSVPFAYWGQGTLVTVSA", "VL": "QIVLTQSPAIMSASPGEKVTITCSAHSSVSFMHWFQQKPGTSPKLWIYSTSSLASGVPARFGGSGSGTSYSLTISRMEAEDAATYYCQQRSSFPLTFGAGTKLELKR", "notes": "Whole murine monoclonal IgG from the DS6 hybridoma (ATCC PTA-4449); the 3' heavy chain cloning primer was BamIgG1 and the light chain primer was kappa; also called DS6 antibody; muDS6"}},
  "key": {"[1]": {"target": "T1, Muc1 mucin carrying the CA6 sialoglycotope (human, UniProt P15941 24-1255, sialylated O-linked carbohydrate carrying the CA6 epitope; positions not stated)", "T1 construct": "whole, on cells; Target of DS6 on CA6-positive human cell lines (flow cytometry) and in their lysates (dot blots, immunoprecipitation); also called CA6 antigen; DS6 antigen", "assay": "flow cytometry on Caov-3 cells, apparent Kd"}, "[2]": {"target": "T1, Muc1 mucin carrying the CA6 …", "assay": "flow cytometry on BT549 cells, apparent Kd"}, "[3]": {"target": "T1, Muc1 mucin carrying the CA6 …", "assay": "flow cytometry on MDA-MB-157 cells, apparent Kd", "protocol": "(§1) Human cell lines were obtained from the American Type Culture Collection (ATCC) with the exception of OVCAR5 (Kearse et al., Int. J. Cancer 88(6):866-872 (2000)), OVCAR8 and IGROV1 cells (M. Seiden, Massachusetts General Hospital). All cells were grown in RPMI 1640 supplemented with 4 mM L-glutamine, 50 U/ml penicillin, 50 μg/ml streptomycin (Cambrex Bio Science, Rockland, Me.) and 10% v/v fetal bovine serum (Atlas Biologicals, Fort Collins, Colo.), referred hereafter as culture media. Cells were maintained in a 37° C., 5% CO₂ humidified incubator.\n(§2) Cells ([…]) were incubated, on ice for 3-4 h, with serially diluted concentrations of the DS6 antibody prepared in FACS buffer (2% goat serum, RPMI) into 96-well plates. The cells were spun down in a table top centrifuge at 1500 rpm for 5 min at 4° C. After removing the media, the wells were then refilled with 150 μl of FACS buffer. The wash step was then repeated. FITC-labeled goat anti-mouse IgG (Jackson Immunoresearch) was diluted 1:100 to FACS buffer and incubated with the cells for 1 h on ice. The plate was covered in foil to prevent photobleaching of the signal. After two washes, the cells were fixed with 1% formaldehyde and analyzed on a flow cytometer."}, "[4]": {"target": "T1, Muc1 mucin carrying the CA6 …", "assay": "flow cytometry on HPAF-II cells, apparent Kd"}, "[5]": {"target": "T1, Muc1 mucin carrying the CA6 …", "assay": "flow cytometry on BT-20 cells, apparent Kd"}, "[6]": {"target": "T1, Muc1 mucin carrying the CA6 …", "assay": "flow cytometry on Hs766T cells, apparent Kd"}, "[7]": {"target": "T1, Muc1 mucin carrying the CA6 …", "assay": "flow cytometry on Hs766T cells, apparent Kd", "protocol": "as §1, §2", "remark": "listed apart in the source"}, "[8]": {"target": "T1, Muc1 mucin carrying the CA6 …", "assay": "cell-based or functional assay"}, "[9]": {"target": "T1, Muc1 mucin carrying the CA6 …", "assay": "flow cytometry on Caov-4 cells, apparent Kd", "protocol": "as §2"}, "[10]": {"target": "T1, Muc1 mucin carrying the CA6 …", "assay": "flow cytometry on MDA-MB-231 cells, apparent Kd", "protocol": "as §1, §2"}},
  "data": [
    {"binder": "B1", "values": [
      {"measurement": "Kd", "setting": "[1]", "result": 5.48, "unit": "nM"},
      {"measurement": "Kd", "setting": "[2]", "result": 1.05, "unit": "nM"},
      {"measurement": "Kd", "setting": "[3]", "result": 0.197, "unit": "nM"},
      {"measurement": "Kd", "setting": "[4]", "result": 2.81, "unit": "nM"},
      {"measurement": "Kd", "setting": "[5]", "result": 0.914, "unit": "nM"},
      {"measurement": "Kd", "setting": "[6]", "result": 2.32, "unit": "nM"},
      {"measurement": "Kd", "setting": "[7]", "result": 2.32, "unit": "nM"},
      {"measurement": "indirect cell viability assay, DS6 with anti-mouse IgG (H+L) DM1 conjugate, Caov-3 cells, IC50", "setting": "[8]", "result": 0.425, "unit": "nM"},
      {"measurement": "Kd", "setting": "[9]", "result": 4.04, "unit": "nM"},
      {"measurement": "Kd", "setting": "[10]", "result": 1.46, "unit": "nM"}
    ]}
  ]
}
